Data taken from US20180371075A1.

Biological target: human IL-3 expressed by E. coli (Peprotech), non-glycosylated (human) (UniProt P08700)
Assay: cell-based or functional assay

Sequence of UniProt P08700 (P08700 28-152, tags or fused parts left off): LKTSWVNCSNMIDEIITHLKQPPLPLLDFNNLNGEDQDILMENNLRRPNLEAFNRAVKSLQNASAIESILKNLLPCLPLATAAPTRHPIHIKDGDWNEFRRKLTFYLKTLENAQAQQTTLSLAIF

## R&D monoclonal anti-IL-3 antibody clone 4806 (R&D Systems, Inc., catalogue No. MAB203)
  IC50, IL-3 dependent growth of TF1 cells: 0.033 µg/mL
